Assay results published in paper PMC8158039.

Target: Recombinant human neonatal Fc receptor (FcRn) (human) (UniProt P55899)
Test: SPR

Sequence of UniProt P55899 (P55899 24-365, chain 1 of 2): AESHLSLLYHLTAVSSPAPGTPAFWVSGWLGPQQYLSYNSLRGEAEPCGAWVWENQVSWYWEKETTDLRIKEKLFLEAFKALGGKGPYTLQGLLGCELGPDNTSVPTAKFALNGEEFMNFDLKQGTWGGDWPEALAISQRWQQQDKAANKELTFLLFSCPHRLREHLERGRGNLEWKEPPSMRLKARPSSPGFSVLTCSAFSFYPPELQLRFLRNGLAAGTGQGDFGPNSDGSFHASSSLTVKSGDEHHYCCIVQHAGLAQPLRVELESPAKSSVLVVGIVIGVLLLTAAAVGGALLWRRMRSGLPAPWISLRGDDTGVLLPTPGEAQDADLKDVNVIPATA
Sequence of UniProt P55899 (P61769 21-119, chain 2 of 2, further chain): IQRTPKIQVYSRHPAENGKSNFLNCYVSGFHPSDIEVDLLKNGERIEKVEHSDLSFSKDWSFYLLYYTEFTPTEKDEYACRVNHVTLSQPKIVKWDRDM

## Etanercept (from UniProt P20333 23-257) (Fc fusion)
  fold of KD against adalimumab: 4 fold
